The record followed here is the supplement of paper PMC10567573.

This data set in a line: protein stability index of a GFP-peptide fusion (GPS, HEK-293T) (PSI 1-6); higher = more stable. Conditions: c terminus: a fixed tail appended.

± gives the standard deviation.
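Note: 24-mer peptide tiles fused after GFP, lentivirally expressed, FACS-sorted into six equal bins by GFP/DsRed ratio, decoded by Illumina sequencing, PSI is the read-weighted mean bin number.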

For PMDSTMDDAVAGDFALINKLDIQC [ATE1], the protein stability index is, setting by setting: (treatment: DMSO) 4.4 ± 0.26; (treatment: MLN4924 1 uM, 8 h) 4.29 ± 0.24.
Consider PMPLSEGKSILLFGGAAAVAILAV [BCL2L13], for which the protein stability index runs as follows: (treatment: DMSO) 2.77 ± 0.76; (treatment: MLN4924 1 uM, 8 h) 2.75 ± 0.69.
On the same counts, the results for PNPSKVLQQLLVLQPEQQLNIYKT [CDS1] are 2.38 ± 0.33 and 2.44 ± 0.3.
For PPHPAPAPQHPAASALRTRMTGGR [DYRK1B], the protein stability index reads like this: (treatment: DMSO) 4.86 ± 0.23; (treatment: MLN4924 1 uM, 8 h) 4.9 ± 0.13.
Regarding PPKIRLKPHRLGDSEHEPVYRAEL [PWWP2B], the protein stability index runs as follows: (treatment: DMSO) 4.02 ± 0.19; (treatment: MLN4924 1 uM, 8 h) 4.09 ± 0.095.
The matching figures for PPNGPNLPMATVDIKNPEITTNRF [WASL]: 4.48 ± 0.15 and 4.16 ± 0.29.
Regarding PPNTRVLRVLPNLPCVVQEGAIVM [PYCR3], the protein stability index turned out to be 2.22 ± 0.22 (treatment: DMSO) and 2.39 ± 0.25 (treatment: MLN4924 1 uM, 8 h).
Take PPRGPQQLSSFGSVDWLSQSSCSG [VENTX]: the protein stability index amounted to 3.77 ± 0.56 (treatment: DMSO) and 3.96 ± 0.34 (treatment: MLN4924 1 uM, 8 h).
PPSGSQPLTSTQGLEHAAAGGSSG [FBF1] registered a protein stability index (treatment: DMSO) of 5.3 ± 0.2 and a protein stability index (treatment: MLN4924 1 uM, 8 h) of 5.44 ± 0.15.
Take PQAHQESTRGAARPAQAIGTQPRA [SPACA9]: the protein stability index came out at 5.08 ± 0.23 (treatment: DMSO) and 5.35 ± 0.18 (treatment: MLN4924 1 uM, 8 h).
In the case of PQGSRSPYIPPHAALCLEVTLKTA [FKBP8], the protein stability index reads like this: (treatment: DMSO) 2.26 ± 0.33; (treatment: MLN4924 1 uM, 8 h) 2.1 ± 0.22.
Take PRAKSKVWKYFGFDTNAEGCILQW [ZBED1]: the protein stability index reads like this: (treatment: DMSO) 2.3 ± 0.59; (treatment: MLN4924 1 uM, 8 h) 2.38 ± 0.081.
The matching figures for PRGRAHLLPNPYQQDFLGLPEELR [C22orf15]: 3.92 ± 0.24 and 4.31 ± 0.11.
The matching figures for PRKRHREDSDVEMVEDDSRKEMTA [MLH1]: 5.43 ± 0.25 and 5.49 ± 0.18.
With PRTSEAQARKALFEKWEQETAAGK [SMTNL2], the protein stability index by setting is: (treatment: DMSO) 5.1 ± 0.31; (treatment: MLN4924 1 uM, 8 h) 5.02 ± 0.24.
Sequence PSDAPHAHHPLHPHLMQEHMGTNV [HNF4A] gave a protein stability index (treatment: DMSO) of 4.45 ± 0.24 and a protein stability index (treatment: MLN4924 1 uM, 8 h) of 4.5 ± 0.1.
With PSFLSQTGHGVSRGPSPVVLGSQD [FCHO1], the protein stability index came to 4.33 ± 0.3 (treatment: DMSO) and 4.3 ± 0.32 (treatment: MLN4924 1 uM, 8 h).
On to PSGHSDAQTLAMMLQEQLDAINEE [PPFIA4], for which the protein stability index was determined as 4.94 ± 0.44 (treatment: DMSO) and 4.46 ± 0.21 (treatment: MLN4924 1 uM, 8 h).
For the sequence PSLEELGFDTDGLSSAVWPGGETE [CRY1], the protein stability index came to 5.33 ± 0.28 (treatment: DMSO) and 5.29 ± 0.16 (treatment: MLN4924 1 uM, 8 h).
As for PVCRKTSRYRSLRPNRQLGSMVEI [TRIM39], the protein stability index runs as follows: (treatment: DMSO) 2.61 ± 0.15; (treatment: MLN4924 1 uM, 8 h) 2.83 ± 0.089.
As for PVDPDSQADTVHSNPELDVLLLGS [DNAAF3], the protein stability index stood at 4.95 ± 0.11 (treatment: DMSO) and 5 ± 0.19 (treatment: MLN4924 1 uM, 8 h).
Turning to PVHLIDKLPLPVTIKSHLKSFSMA [RAB40C], the protein stability index (treatment: DMSO) amounted to 2.3 ± 0.081 and the protein stability index (treatment: MLN4924 1 uM, 8 h) was determined as 2.34 ± 0.039.
The matching figures for PVYLLLELEDKDGLQSAQPTEGQG [MYBL2]: 3.88 ± 0.23 and 3.79 ± 0.058.
On the same counts, the results for PWERAMGVDPQQKMELGIDLLAYG [MYOZ1] are 2.97 ± 0.28 and 2.94 ± 0.13.
The matching figures for PWVKELQDSKEMKQLLDSKIGFEI [ZNF449]: 2.9 ± 0.49 and 3.01 ± 0.65.
For the sequence PYFLFQHWATGYSKSSHPLIRSLF [SOAT1], the protein stability index turned out to be 2.46 ± 0.51 (treatment: DMSO) and 2.34 ± 0.74 (treatment: MLN4924 1 uM, 8 h).
For QAAPGALPVSSPEPPPALPPAADA [TRIM55], the protein stability index runs as follows: (treatment: DMSO) 5.46 ± 0.15; (treatment: MLN4924 1 uM, 8 h) 5.37 ± 0.28.
QALKFLPVPSAPVIDLAESLVADN [FSD1]: the protein stability index reads like this: (treatment: DMSO) 3.48 ± 0.42; (treatment: MLN4924 1 uM, 8 h) 3.77 ± 0.28.
In the case of QALSNVPPLRNYFLEEDNYKNIKR [USP39], the protein stability index runs as follows: (treatment: DMSO) 3.77 ± 0.28; (treatment: MLN4924 1 uM, 8 h) 4.18 ± 0.48.
The matching figures for QEKDQEMERLRELQRASILDMRRD [FBF1]: 4.86 ± 0.22 and 4.79 ± 0.24.
For the sequence QEMVQRPQPHRNRAGLDLPTIDTG [TRAF3IP2], the protein stability index is, setting by setting: (treatment: DMSO) 4.5 ± 0.26; (treatment: MLN4924 1 uM, 8 h) 4.59 ± 0.19.
Consider QEPPTTDSQEAQSPGHSSAGQEGE [TOR1AIP2], for which the protein stability index by setting is: (treatment: DMSO) 5.67 ± 0.25; (treatment: MLN4924 1 uM, 8 h) 5.56 ± 0.26.
Consider QFHDLMELFRIGGKSPDTNYLFMG [PPP2CA], for which the protein stability index reads like this: (treatment: DMSO) 2.53 ± 0.58; (treatment: MLN4924 1 uM, 8 h) 2.24 ± 0.39.
With QFQDLTGIESMDQCRHTLEQHNWN [FAF2], the protein stability index turned out to be 3.1 ± 0.38 (treatment: DMSO) and 3.37 ± 0.13 (treatment: MLN4924 1 uM, 8 h).
QFSVVSVVAYLALAALSATISFRI [RTN1] yielded a protein stability index (treatment: DMSO) of 2.99 ± 0.57 and a protein stability index (treatment: MLN4924 1 uM, 8 h) of 3.2 ± 0.55.
Sequence QGEGPEAGDAEVCPTPARLATTEK [NOP53] had a protein stability index (treatment: DMSO) of 5.46 ± 0.27 and a protein stability index (treatment: MLN4924 1 uM, 8 h) of 5.44 ± 0.19.
